T1: natural Bet v 1 (Betula verrucosa (Betula pendula), UniProt P15494 2-160)
T1 chain: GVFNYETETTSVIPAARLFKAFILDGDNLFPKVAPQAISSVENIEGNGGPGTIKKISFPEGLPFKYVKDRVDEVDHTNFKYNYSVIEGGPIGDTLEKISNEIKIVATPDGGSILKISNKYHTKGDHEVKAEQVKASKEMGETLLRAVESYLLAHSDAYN

T2: natural Bet v 1 (Indoor Biotechnologies, # NA-BV1-1) (Betula verrucosa (Betula pendula), UniProt P15494 2-160, biotin labeled in the IgE blocking ELISA (Tables 12-14); unlabeled in the SPR of Table 18)
T2 construct: Bought natural allergen purified from birch pollen; also called nBet v 1; Biotinylated Bet v 1
T2 chain: T1 chain

B1: H4H17082P2 (antibody, human IgG4 S228P, kappa, V domains shown)
VH: QVQLVQSGAEVKKPGASVKVSCKASGYTFISYNIFWVRQATGQGLDWMGWMNPFRNNAGYAQKFQGRVTVTWDTSISTAYMELSSLSSEDTAIYYCAREHGSSWGFFDYWGQGTLVTVSS
VL: not shown
notes: Human IgG4; also called REGN5715; MAB2
B2: H4H17082P2 (antibody, human IgG4 S228P, kappa, V domains shown)
VH: B1 VH
VL: not shown
notes: human IgG4; also called REGN5715; MAB2
B3: H4H16987P (antibody, human IgG4 S228P, kappa, V domains shown)
VH: EVQLVESGGGLVQPGGSLRLSCAASGFTVSSNSMSWVRQAPGEGLEWVSVIFSGGITYYSDSVKGRFTISRHNSKNTLYLQMNSLRTEDTAVYYCARHSNWNFDAFDIWGQGTMVTVSS
VL: DIQMTQSPSSLSASVGDRVTITCRASQSFDTYLNWYQQKPGKAPNLLIYATSSLQSGVPSRFSGSGSGTDFTLTISSLQPEDFGTYYCQQSYSIPYTFGQGTKLEIKR
notes: human IgG4; also called MAB4

What was measured:
natural Bet v 1 [1] = target: T1, natural Bet v 1; test: cell-based or functional assay
natural Bet v 1 [2] = target: T1, natural Bet v 1; test: SPR Biacore 4000, mAb captured on anti-human Fc, 25C;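 also: purified anti-Bet v 1 mAbs probed with natural Bet v 1 in HBS-ET buffer (HEPES, NaCl, EDTA, Tween-20) at pH 7.4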
Method: (§1) Equilibrium dissociation constants (KD) for natural Bet v 1 binding to purified anti-Bet v 1 monoclonal antibodies were determined using a real-time surface plasmon resonance biosensor (SPR-Biacore) on a Biacore 4000 instrument. All binding studies were performed in 10 mM HEPES, 150 mM NaCl, 3 mM EDTA, and 0.05% v/v surfactant Tween-20, pH 7.4 (HBS-ET) running buffer at 25° C. and 37° C. […] Association (kₐ) and dissociation (kd) rate constants were determined by fitting the real-time binding sensorgrams to a 1:1 binding model with mass transport limitation using Scrubber 2.0c curve-fitting software. Binding dissociation equilibrium constants (KD) and dissociative half-lives (t½) were calculated from the kinetic rate constants as:

natural Bet v 1 [3] = target: T1, natural Bet v 1; test: SPR Biacore 4000, mAb captured on anti-human Fc, 37C;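 also: kinetic rate constants from SPR sensorgrams fitted to a 1:1 model with mass transport limitation, HBS-ET buffer pH 7.4, KD and t½ derived from the rate constants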
Method: as §1

[4] = target: T2, natural Bet v 1 (Indoor …); test: blocking ELISA, captured IgE of donor 23035-BL, 1 ug/mL each antibody
[5] = target: T2, natural Bet v 1 (Indoor …); test: blocking ELISA, captured IgE of donor 23939-MH, 1 ug/mL each antibody
[6] = target: T2, natural Bet v 1 (Indoor …); test: blocking ELISA, captured IgE of donor 25299-RJ, 1 ug/mL each antibody
[7] = target: T2, natural Bet v 1 (Indoor …); test: blocking ELISA, captured IgE of donor 25340-RR, 1 ug/mL each antibody
[8] = target: T2, natural Bet v 1 (Indoor …); test: blocking ELISA, captured IgE of donor 25414-CW, 1 ug/mL each antibody
[9] = target: T2, natural Bet v 1 (Indoor …); test: blocking ELISA, captured IgE of donor 25609-MS, 1 ug/mL each antibody
[10] = target: T2, natural Bet v 1 (Indoor …); test: blocking ELISA, captured IgE of donor 26532-CC, 1 ug/mL each antibody
[11] = target: T2, natural Bet v 1 (Indoor …); test: blocking ELISA, captured IgE of donor 29718-MW, 1 ug/mL each antibody
[12] = target: T2, natural Bet v 1 (Indoor …); test: dose-response blocking ELISA, captured IgE of donor 23939-MH, at 1 ug/mL each antibody
[13] = target: T2, natural Bet v 1 (Indoor …); test: dose-response blocking ELISA, captured IgE of donor 25340-RR, at 1 ug/mL each antibody
[14] = target: T2, natural Bet v 1 (Indoor …); test: dose-response blocking ELISA, captured IgE of donor 25609-MS, at 1 ug/mL each antibody
[15] = target: T2, natural Bet v 1 (Indoor …); test: blocking ELISA, captured IgE of donor 22627-MN, 1 ug/mL each antibody
[16] = target: T2, natural Bet v 1 (Indoor …); test: blocking ELISA, captured IgE of donor 23658-MD, 1 ug/mL each antibody

Binder	blockade of basophil activation (phospho-Erk MFI in basophils of PBMCs from birch allergic donors, 100 pM natural Bet v 1) (natural Bet v 1 [1]) [%]	100 nM natural Bet v 1 Bound (RU) (natural Bet v 1 [2])	Kd (natural Bet v 1 [2]) [nM]	100 nM natural Bet v 1 Bound (RU) (natural Bet v 1 [3])	Kd (natural Bet v 1 [3]) [nM]	t½ (natural Bet v 1 [3]) [min]	Percent Blocking [4] [%]	Percent Blocking [5] [%]	Percent Blocking [6] [%]	Percent Blocking [7] [%]	Percent Blocking [8] [%]	Percent Blocking [9] [%]	Percent Blocking [10] [%]	Percent Blocking [11] [%]	Percent Blocking [12] [%]	Percent Blocking [13] [%]	Percent Blocking [14] [%]	Percent Blocking [15] [%]	Percent Blocking [16] [%]
B1	70	72	1.09	83	2.43	6.3													
B2							52	79	66	81	38	51	74	49	82.9	82.7	56.4		
B3							-46	16	9	15	-4	16	4	13	19.6	11.1	21.6	12	27

Reference: patent US20180346555A1 (Regeneron, published 2018)
